Here are results for 2 molecules from patent EP4682166A1 (Guangzhou Enmai Biotechnology Co., Ltd, dated 2026).

Assay [1] addresses T1, human NMI (N-myc Interacting protein), recombinant protein (human, UniProt Q13287 1-307, limits assumed).
T1 construct: Gene ID: 9111; also called hNMI; antigen
T1 sequence (looked up): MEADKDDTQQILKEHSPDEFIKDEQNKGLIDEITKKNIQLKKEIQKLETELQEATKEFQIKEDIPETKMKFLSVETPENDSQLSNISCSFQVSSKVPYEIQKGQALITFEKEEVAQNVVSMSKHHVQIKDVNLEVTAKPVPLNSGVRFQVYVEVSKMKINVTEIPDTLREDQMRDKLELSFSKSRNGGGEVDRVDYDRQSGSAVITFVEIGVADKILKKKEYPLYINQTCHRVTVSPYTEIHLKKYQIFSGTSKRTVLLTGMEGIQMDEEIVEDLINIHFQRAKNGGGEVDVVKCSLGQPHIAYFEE
The assay can be described thus: sandwich ELISA; detection 94C4-1-biotin 1µg/mL; hNMI 25,000.000 pg/mL.

For assay [2], the target named is T1, human NMI (N-myc Interacting protein), …. The assay can be described thus: sandwich ELISA; detection 98G10-1-biotin; hNMI 33.333 ng/mL.
The target is the same in assay [3]. The assay can be described thus: sandwich ELISA; detection 94C4-1-biotin 0.5µg/mL; hNMI 6,250.000 pg/mL. In general terms: In an ELISA, binding on a coated surface is turned into a signal by an enzyme label.
Assay [4] shares this target. The assay can be described thus: sandwich ELISA; detection 94C4-1-biotin 0.5µg/mL; hNMI 50,000.000 pg/mL.
For assay [5] the target is unchanged. The assay can be described thus: sandwich ELISA; detection 94C4-1-biotin 0.5µg/mL; hNMI 3,125.000 pg/mL.
Assay [6] has the same target. Kind of assay: sandwich ELISA; detection 94C4-1-biotin 0.5µg/mL; hNMI 48.828 pg/mL.
For assay [7] the target is unchanged. The assay can be described thus: sandwich ELISA; detection 94C4-1-biotin 1µg/mL; hNMI 6,250.000 pg/mL.
Assay [8] has the same target. Kind of assay: sandwich ELISA; detection 94C4-1-biotin 0.5µg/mL; hNMI 1,562.500 pg/mL.
For assay [9] the target is unchanged. Kind of assay: sandwich ELISA; detection 94C4-1-biotin 1µg/mL; hNMI 97.656 pg/mL.
Assay [10] has the same target. Kind of assay: sandwich ELISA; detection 94C4-1-biotin 0.5µg/mL; hNMI 781.250 pg/mL.
For assay [11] the target is unchanged. Kind of assay: sandwich ELISA; detection 94C4-1-biotin 0.5µg/mL; hNMI 25,000.000 pg/mL.
Assay [12] shares this target. The assay can be described thus: sandwich ELISA; detection 39B4-1-biotin; hNMI 1.235 ng/mL.
For assay [13] the target is unchanged. The assay can be described thus: sandwich ELISA; detection 98G10-1-biotin; hNMI 100.000 ng/mL.
Assay [14] has the same target. Kind of assay: sandwich ELISA; detection 98G10-1-biotin; hNMI 1.235 ng/mL.
Assay [15] has the same target. Kind of assay: sandwich ELISA; detection 94C4-1-biotin 1µg/mL; hNMI 781.250 pg/mL.
Assay [16] has the same target. The assay can be described thus: sandwich ELISA; detection 94C4-1-biotin 1µg/mL; hNMI 3,125.000 pg/mL.
The target is the same in assay [17]. The assay can be described thus: sandwich ELISA; detection 94C4-1-biotin 1µg/mL; hNMI 12,500.000 pg/mL.
Assay [18] has the same target. Kind of assay: sandwich ELISA; detection 94C4-1-biotin 1µg/mL; hNMI 1,562.500 pg/mL.
Assay [19] shares this target. The assay can be described thus: sandwich ELISA; detection 94C4-1-biotin 0.5µg/mL; hNMI 195.313 pg/mL.
For assay [20] the target is unchanged. The assay can be described thus: sandwich ELISA; detection 94C4-1-biotin 0.5µg/mL; hNMI 390.625 pg/mL.
The target is the same in assay [21]. Kind of assay: sandwich ELISA; detection 94C4-1-biotin 1µg/mL; hNMI 195.313 pg/mL.
For assay [22] the target is unchanged. Kind of assay: sandwich ELISA; detection 94C4-1-biotin 1µg/mL; hNMI 48.828 pg/mL.
For assay [23] the target is unchanged. The assay can be described thus: sandwich ELISA; detection 98G10-1-biotin; hNMI 3.704 ng/mL.

B1: monoclonal antibody 240B10-1 (antibody, V domains shown)
VH: QSLEESGGRLVTPGGSLTLTCTVSGIDLSSYTMGWVRQAPGKGLEYIGIISGGGRTYYASWAKGRFTISKTSSTTVDLKVTSLTTEDTATYFCARIYTLWGQGTLVTVSS
VL: QVLTQTLASVSAAVGGTVTINCQSSQSVYNNDYLAWFQQKSGQPPKQLIHSASKLASGVPSRFKGSGSGTQFTLTINDVQCDDAATYYCLGGYDCYSADCNVFGGGTEVVVK
notes: Rabbit monoclonal antibody
For the molecule B1, the OD450 in assay [1] amounted to 2.75 OD450; in [2], 2.56 OD450; in [3] it was 1.58 OD450; in assay [4], 3.33 OD450; in [5] it was 1.29 OD450; in assay [6], 0.125 OD450. Also, the OD450 came out at 1.47 OD450 in assay [7]; 0.907 OD450 in [8]; 0.185 OD450 in assay [9]; 0.396 OD450 in [10]; 2.94 OD450 in assay [11]; 0.35 OD450 in [12]. For the same molecule, the OD450 in assay [13] is 3.14 OD450; in [14] it was 0.362 OD450; in [15], 0.351 OD450; in [16], 0.958 OD450; in [17] it was 2.17 OD450; in assay [18], 0.568 OD450. For the same molecule, the OD450 came to 0.187 OD450 in assay [19]; 0.268 OD450 in assay [20]; 0.212 OD450 in [21]; 0.167 OD450 in assay [22]; 0.777 OD450 in assay [23].

B2: monoclonal antibody B-8 (antibody, V domains shown)
VH: QSLEESGGDLVKPGASLTLTCTASGFSFSSSYYMCWVRQAPGKGLEWIACIYAGSSGSTYYASWAKGRFTISKTSSTTVTLQMTSLTAADTATYFCAREYSYDDYGDFWGFNLWGPGTLVTVSS
VL: ALVMTQTPSSVSAAVGGTVTINCQASQNIYTNLAWYQQKPGQPPKLLIYGASNLESGVPSRFKGSGSGTEYTLTISDLECDDAATYYCQSSLYSRIADRANAFGGGTEVVVK
notes: Rabbit monoclonal antibody; also called B8-1
Turning to B2, the OD450 came out at 2.79 OD450 in assay [1]; 2.48 OD450 in assay [2]; 1.29 OD450 in [3]; 3.17 OD450 in assay [4]; 0.712 OD450 in [5]; 0.102 OD450 in assay [6]. For the same molecule, the OD450 in [7] is 1.3 OD450; in [8], 0.42 OD450; in assay [9] it was 0.15 OD450; in [10], 0.265 OD450; in [11], 2.71 OD450; in [12] it was 0.291 OD450. The OD450 was 3.02 OD450 in [13]; 0.307 OD450 in [14]; 0.288 OD450 in assay [15]; 0.75 OD450 in assay [16]; 2.03 OD450 in assay [17]; 0.446 OD450 in assay [18]. Besides, the OD450 turned out to be 0.134 OD450 in assay [19]; 0.178 OD450 in [20]; 0.173 OD450 in assay [21]; 0.139 OD450 in [22]; 0.607 OD450 in [23].
